The target of this data set is T1, dFos DNA-binding domain;dJun DNA-binding domain (Drosophila melanogaster;Drosophila …, UniProt P21525;P18289 418-481;212-275, |).
T1 sequence 1: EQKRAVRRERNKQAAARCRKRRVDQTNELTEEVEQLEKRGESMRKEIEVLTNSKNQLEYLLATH
T1 sequence 2: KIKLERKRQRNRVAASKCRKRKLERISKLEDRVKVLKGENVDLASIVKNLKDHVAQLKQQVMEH
Briefly: EMSA; 10 mM Tris-HCl pH 8.0, 10 mM DTT, 2.5 mM MgCl2, 10% glycerol, poly(dI-dC), BSA, 100 ng dJun and dFos, 1,000 cpm 32P probe; temperature not stated. Conditions: protein: recombinant;recombinant; tags: 6xHis;6xHis; copies: 1;1; label: 32P. Background: A gel shift assay detects complexes by their altered migration in electrophoresis.

B1: hMTII wt AP-1 probe (dsDNA)
DNA 1: GAGCCGCAAGTGACTCAGCGCGGGGCGTGTGCAG
DNA 2: CTGCACACGCCCCGCGCTGAGTCACTTGCGGCTC
On to B1, for which the binding result is “binds”.

Values taken from PMC2713827, “Characterization of a Lamellocyte Transcriptional Enhancer Located within the misshapen Gene of Drosophila melanogaster”.
